Data as given in the NTF2 design screens of Basanta et al. (2020).

Test: protease stability score; higher = more stable; yeast display proteolysis, trypsin and chymotrypsin;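 further: log10 excess protease needed over predicted unfolded state with 0 meaning unfolded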

| Sequence | protease stability score |
| --- | --- |
| DEEDFNNAQSMIKDEEQGDEEQITRNLDPNVKIRVGDKRLHGRENYAREVARKARRIRVEVHIRSVSHSGNHIRIDVEVHEQQNGKPDHSRFVVLMHYNNGTVKKAQFDDTD | 0.103 |
| DEEDHKKILQKIADVYQRGNPNQQRDLMDENARVVIGNTKFHGREQAMEAAEERRRQVDRIQLTSIDVHGNKFHIRVTLDINGKTVDIHIDVEVHNGKIKDVQVDPRAEKFFKG | 0.202 |
| DEEDHQKIAHSLAEVLKTGDPDRMMELADENVKFQVGDKTYHGREELKKYMEQLHRHADHIEIDHISVQGDKIRIHARMNVNGREHTFVIQVEIHNGRAKSITFQYG | 1.53 |
| DEEDIAHQWQDKMRTAFKDNDPEQFTQLADEDAKMHVGDTEYHGRDTIMKTLVDEAKRADRITFNVQDFRVNGNNVVVRLEIRMQHNGKEDSKVVRLVFNQSGDDMRLRYAHDG | 0.338 |
| DEEDIARQLAEDFRKVLENGDPDEMRKNADKDARLKVGDKQVHGRDEMVKYFEKLNKEYDRVHIHIKSVSAQGDKLRVEIQVVWNSNGKNDKTTYDLVFQHDDGHVKLLEIRES | 0.539 |
| DEEDIRRIVHEFNRAVQRGNPDDVVRLLDKHAKIVVGEFDVTGREDARKFAEQLRSMADHVTIKSMSVQGDKAHVVIVFDINGKKLTLTFEVQLHNGRVQNLHVDVRDEEEFSRNVG | 0.782 |
| DEEDKADQFLRDLRQALQHNDENRMKELADKDARLNVGDKSVQGREQVVEHLVEKAKQVDDIKINIHTIKVHDGRFKFRATFVFNHNGKEESDEIVLVAHESNGKLKLLEVKEG | 1.14 |
| DEEDKKKLNHTVANVIQHGDEKQARRLMDPNVKVVIGDKTYNGRHKATEALKTLRDRADEIRVHDFRLEGDHINIIIELHINGQQTTLEIEVQFSGDKIKSVVFKTR | 0.795 |
| DEEDKKRLDTFDDNEDRGDRTKVRELADPNAKYEYGDNTVHGREDLEKMVHHLKNQLRIRVKSVEKRMHNGTLRASQREQQDHNGRPDDNSFDQDVHIHNGRIKQNVVEERK | -0.15 |
| DEEDKMTELTSRMIQAVRQNDFHKIVDQFDKNVTFEVGDHRVHGRTQAQEWARHLLRRVDHATVNLKHVEVQGDTARVKMQLILDRNGRRETRTVIIEAEIDGDKVRAKKLSIG | 1.66 |
| DEEDLDRVESALRTNDPDTLSEMADKDVKVEYGDKSYQGRERFQHFIKQLAHQVDHVEVRSVDKRGDRLKATRVLVINGRSITVVVTIEARNGRIKMLEMSARNESQEKKLVELFQ | 0.941 |
| DEEDLDTVAQTFVTALKQGDPHQVMKLADEDVKATVGDERVHGSQHVNELIKRFRRNVDHVDIEDYRIHNGKIRMRVRLTVNGRTQNLNMVLIVRNGRLKMFKIDPQDVRQFHG | 0.972 |
| DEEDLERMQDFMRAINKGDEDRLTKLVDENVHWVVGDKRVHGREQLRKEVDRRREKMSIKFDRVDAHADNGHAVVNIEYNVKHNGQPTSNFVRVQAEATNGKIKEVVVQEDK | -0.279 |
| DEEDLHHLAREMKDLMQRGDHKRFEELADENARLIIGDKTVTGRTRIKDELRKWREEADHIQIHDVRASGNRINLDIRVVVNGQEHRFIVIIELKNGKVSQMEVEDS | 1.91 |
| DEEDLHNALNAWKAFNTGDPDRAVQLADPNVNVVIGDKHVHGREQLSHEIKRVRHESNVQVRHVNNDNQGEKAKVQAEMVDTQNGQPRTFTVDIDVRAHNGKLKEVKVQEQD | -0.322 |
| DEEDLHRNMKQMLKDFNTGDPDKIQEQIDPNAKVQVGDTTFHGREEAHRMARDFRHQVDHIQLKEVKVRGNEFEASVVVKYDGKERRFVMQANVHNGKVKKLWFEDK | 0.063 |
| DEEDLKEFVKILKEGDPEKLKKMVDENVTIEIGDKRVSGKEKARDLAENFRERVDSHHIHRVDIEGERMVVDVEVSVNGRRIRYTLFAEVHNGKLKQQSVQYTSEEQRKLLTEMWT | 0.3 |
| DEEDLKHMNENFESGNPDQIVEMFDKDARITVGNKKYRGREDIRKFAEMIRKQVDNRRLKSVEVEGNKFRIQWMFVVNGRRIEAVLHVHAHNGKVKEMSIEVTNPEDQTQYDRDAD | 1.66 |
| DEEDLKKLAKELEKAIKTGDPQKIVDMADPNAKAQIGDKEVHGQENLHEAMQKLSREVDHIEIRSLSIHGEKVELVFVLQVNGRKRTYTVEMTAHNGKITHMTWRHQ | 0.284 |
| DEEDLKKVVDQLIKAVVNGDVEKIVKYIDEDVEFKLGDTKYKGKEEAKKVVTKLVQVGAEVHVDHVRVKGDEAEVDTVWHIGNTEAHMTVKYVVRGDKVERVEVRWTEEVKKAIKAG | 1.46 |
| DEEDLKNQARDFIEALETGDEDQIARLADPDAEADVGDTKYTGREEVREYMKHISDNVDHIQLKDMKVSGNEITIVAVLNVNGHEFDMEIHIELHNGRAKTIRIDPRAINHMTK | 0.746 |
| DEEDLKRLAETFADALQRNDPSQLNKMIDPNAKVQYGEKTFHGREKLHEWAHEMKKQADHFEIRSITVEGESVVIDLRMIVNGHERRLNLTMHLKNGRIQHLRADSR | 0.943 |
| DEEDLKRLREMHKAVSRGDPRQIQENMDPNVRVQYGDKTIHGREHIASELITKMKHWRLDFKRYHATVTPNRVQVHIDYIERHNGKPHKNKNKAEAEVDNGKIKRYQQSSDG | -0.03 |
| DEEDLKRVVDILHQNDPDQMIEMADENVKLEVGDKEFHGREEFSKFQRRIRDAVDHVEVKSLSHHNGRINMTFVLQINGRRIEFSAVVRVHNGKIKSMKVNATNEDDQSRFESQLS | 0.192 |
| DEEDLKTAHRRQRTNDFDRIRNKADKDAHVQVGDTQVHGREEVKKFMTLLKKRVDHVEIHDIEKKPGRLVVELRMNVNGQEIDLVVMFQFKNGSLKHMRFKVRDEDDKRKLEKALS | 0.432 |

| Sequence | protease stability score |
| --- | --- |
| DEEDLKTMFDVMETGDPNQIADQFDKDARVVVGNRRVRGKEHIHTWAHEWRKNVDHQQVDSYEIKGDNARVDMQATINGTRFVFEIIIQVHNGKAKEMELRVRDEEEKKELDEVLE | -0.026 |
| DEEDLNKFAEHVVHALQEGNPDQLMHLADENVKMTVGDTSVEGKDQVSEYWTEMKERIDHFSYTSVDVRGNTIEIRFTADVDGRELRQVLIIEVRNGRAKSISIEDG | 1.88 |
| DEEDLQKLARSFQENLKTGNPDELMKLFDEDANLHYGDKKVHGREDIRRWADEMRRRVDKVTVLQVDAHGDKMDAVIVQRFDGRDVMISVDAKFHNGRFKEVVYRVRDEEHEKRLHT | 1.38 |
| DEEDLQRVAEEVARALDTGNPDKFNSLLDKDAKVNYGDKEYTGREELKKLQERIKEHVDHVHVKRVKVEGEKIHLDIEFEVNGRRFRDTIEARVHNGELQKVHVDPNFVRELKQ | 0.842 |
| DEEDLREIVEEMRTGDEDKFNKNLDENVKVEIGDKTWQGREQAQKMHADVMRRADNVRLKEYEVHNGHVDADLTVEINGRSVEYVMKIEIDNGTMKRIEVTVRDETQEDIQRKVLE | 0.309 |
| DEEDLRHLIELMEKGDFSRIADQADEDVRVDIGDKRIHGREQVLTYAEKLSKNIDHVKIQHYHVEGNKLVVDMVIVVNGKDVRATLTAEISNGRLKHMELHATNEEQQTRLKEIIS | 0.871 |
| DEEDLRKQANEVAEMFMHGDPTDAREQFDKHAEVQYGDKVVHGKEQAAQLVKEFRDNVDRVELKRVEAHGDKVTVTVVFTVNGRKVVIVFEMRIHNGKIKSVDAHVTSEELHKRMQD | 0.155 |
| DEEDLRTRASEFNKVLENNDPDRLNKLADKDATANYGDHEYHGREDIHHMAETMVRQVDRIEIKHVQARNGRVKVDLIMRVNGKEVKVDVTMEFHNGHLKLVTFDPDQVRKVEG | 0.673 |
| DEEDLSDVLDKMDKAIVRGDEQKLQDLADPNVRAEIGDQKYHGRDAITMFFKVLTEQVDHMRIKTVELQGNKLYIVVSAHFNGQTYDVRFVADAHNGRITRIYVDPQAQKRMEE | 1.29 |
| DEEDLTRLHKLWRNNNWKELVNQMDPNARVTVGDEVIQGRENVTHWADRVEHQIDHYEIKDFRRQGNKILVLFRAEVNGQRFEAIVAVLMVNGDVHHLEVRFRDERDEKKFKEHVS | 1.48 |
| DEEDMDEVEKAIRKNDPEKMRDLADENAKASVGDNQFHGRDNVENFMKHLTDHADHVQVDSVEKHNGRVVVNAQLDINGEQIQIVIRIDVHNGKIKRFSIEVRDEEAHHFMREMVS | 0.895 |
| DEEDMKKVVKQLLEAAQNGNTEKIVQLVKKDVEFKLGDTEYRGQEDVRKVVKKLRDIGAEFHVKEYEATGGEAKVKTVWHIGDNEAHVEVKYTVEDDKVDRVEVRWSEKAQKQIKKG | 0.801 |
| DEEDMKRVQDLIKAFQEGDPDKVVEQIDPNARIEVGDQHVSGRQHIRETIHNRVEEAEIHYESITLRVRGNTVEVRMVFVENKNGRPKRVHVKIEVQMHNGKVKEIREQEVS | 0.969 |
| DEEDMNTLQKMNEKNDEEKLQKLADEDARFVVGDKTLTGHHEFQTFVHRFVKHVDHLQVDSVEVQGNQVDLDVRAEINGRHYRFQIVIIIQNGRLKEYRLQATDEDEEEKFKKMIE | 1.25 |
| DEEDMQRFFKEFLKAQETGDPDEIRRQMDPNARAHVGDKEYHGREQVAKMFRDVRERVDRIRIESVDIQGNKANVDVTYNVNGRKARINVTLKAHNGRFKEMHFNPEDTKEMEK | 0.033 |
| DEEDNETALRTMMELIVEGNTNQAHRLFDENATVKIGDTTFHGREQIAQAIRHLHEQADHMEVKDFRLTGDKARANVQLHHNGKTIEVDVVFRVSNGRVKHMFIDPQQVRHLRG | 1.05 |
| DEEDNKTAKKLAKTGDPDEFAEQADEDVHIVVGDFEVHGRDELRKLMKRLKDHIDHKEIKRLRVHNGHVDLKFKAVFNGQEMEVSVILTARNGKIKRLEFRVRDDHAHELLEHLLK | 1.03 |
| DEEDNTKLKRIMQTGDFETLVHQADENAEFHYGDKTYHGNDQAHKAVENQKKQFDKIEVRSIETKNGHVHVEFRIEVNGRELVLTAFANVHNGRVKNATVQARSEEDRKSLKELDR | 0.044 |
| DEEDNTRLVNLFEHNDWDTIADQADPEAQLVIGDKTYTGREEVKKALSTLVERVDRIEFKRFDVHGNKIHVKMELRFDGRNIELVMRITIKNGRIKSIKIRARDKEVEKILKEMHS | 1.22 |
| DEEDQAKELAERYLEAMENGDEEKNARLADKDVSLTVGDKHVHGREELKKWFRTFVHRVDHVEIQVHDVKVSNGNATIDAEIKYTFNGRDVKKQVLMHAHVKNGELTLKRMTFE | 1.02 |
| DEEDQEKFARDFVRILKDGNPDRARKMFDENARVHVGEKVVHGRDQIRTLVEEIHRRADRINITDFRVHGNSFVFIVVLEKNGETRSFTIVVIVHNGRAQSMHVQSN | 0.96 |
| DEEDQERLEDFLRALKKGDEERLKELVDPNAQFEIGDTTYHGREHFLHTMRRKNEEIRVERDFHTVRAENGHVEMHFHAQENHNGRPRTFTAHATAVIHNGRLKSFVLKVDG | -0.026 |
| DEEDQHVAKEFFSAMLTNDTDKLRRLADPNVRAHIGDKVIHGKEQFVRHVHELVEHQRVQVDRMDLDVDGERVRVEMRHVNEENGQPNDRKAKNSMDIHNGEIKYVTIKTQS | -0.437 |
| DEEDQKELADEMVKVLETGDEDRFSQLLDKDVNINVGDQTYSGSEQAVKWFRELLDNVDSFKFDRVRVNGDQLQIHAILDVNGHDIHVVFQVQFHNGRAQHLNMRYTDDEEKKRFDS | 1.34 |
| DEEDQKHAESFFRNLINNNPEKLKEMADPNAEFEVGDKTLNGTEDLSKWAQKLKDQARMSIQSLTIRVENGRLSATMTFEVEHNGQPDRMKITAHASITNGKITHFMLRLDPKQYKSWVG | 0.493 |
